The results in this text go back to US20250277025A1 (SHIJIAZHUANG YILING PHARMACEUTICAL, published 2025).

For orientation: EC50 (read off the curve) means the concentration needed to bring the measured effect to its halfway point. Read a high EC50 (read off the curve) as a less potent agent.

Numbering of substitutions follows the chain as printed.

The target of test [1] is human CLDN18.2 expressed on cells (human). The experiment in a line: cell-based or functional assay.
For test [2], the target named is T1, human CLDN18.2 expressed on cells (human).
T1 construct: also called huCLDN18.2
The experiment in a line: flow cytometry (geometric mean, Alexa Fluor 647 anti-human IgG Fc) on CLDN18.2-expressing 293T cells. On the technique in general: In flow cytometry, cells or beads pass a laser one at a time.

Test [3] concerns the target T1, human CLDN18.2 expressed on cells. As to the kind of experiment: cell-based or functional assay. This is another data set of the same source.
For test [4] the target is unchanged. As to the kind of experiment: cell-based or functional assay. The source holds these as a separate data set.
Test [5] shares this target. As to the kind of experiment: cell-based or functional assay. The source holds these as a separate data set.
For test [6] the target is unchanged. The experiment in a line: flow cytometry on CHO cells expressing huCLDN18.2, GAH-FITC secondary, percent FITC-positive cells. The method, then: CHO cells expressing huCLDN18.2 were used to assess the binding of the antibodies. Cells were seeded at 5×10⁵ cells per 100 μl into a well of a 96-well plate for each sample. Then, 100 μl of each serially diluted antibody was added to the cells, each dilution started at 40 μg/ml and was diluted 5-fold. Therefore, the final concentration of each antibody starts at 20 μg/ml followed by a 5-fold serial dilution. After 1 hour, the cells were washed twice and 100 μl of GAH-FITC (1:200 dilution) was added to each well. After 30 minutes, the cells were washed twice and resuspended in 120 μl of FACS buffer. The cells were analyzed via flow cytometry.
Unstained cells were used as a reference to set up overall target cell gating and to establish the FITC-negative populations, allowing us to establish the FITC-positive cell gate for each cell line. Additionally, the mean fluorescence intensity (MFI) of the entire population of cells was calculated to secondarily validate the FITC-positive results. The ratio of the gated positive cell number to the total live cell number is taken as the percentage of positive cells.

B1: IMAB362 (Ganymed) (antibody, V domains shown)
VH: QVQLQQPGAELVRPGASVKLSCKASGYTFTSYWINWVKQRPGQGLEWIGNIYPSDSYTNYNQKFKDKATLTVDKSSSTAYMQLSSPTSEDSAVYYCTRSWRGNSFDYWGQGTTLTVSS
VL: DIVMTQSPSSLTVTAGEKVTMSCKSSQSLLNSGNQKNYLTWYQQKPGQPPKLLIYWASTRESGVPDRFTGSGSGTDFTLTISSVQAEDLAVYYCQNDYSYPFTFGSGTKLEIKR
For B1, in test [1], the “CDC on KATOIII CLDN18.2 cells, LDH: EC50 (run A)” value was around 38.1 nM; the “CDC on KATOIII CLDN18.2 cells, LDH: EC50 (run B)” value was around 22.7 nM; the “CDC on KATOIII CLDN18.2 cells, LDH: EC50 (run C)” value was around 27.5 nM. Further, in test [2], the concentration giving a half-maximal response (EC50 (read off the curve)) is around 800 ng/mL. Further, in test [3], the “CDC on CT26 CLDN18.2 cells, LDH: EC50 (run A)” value was around 11.5 nM; the “CDC on CT26 CLDN18.2 cells, LDH: EC50 (run B)” value was around 10.7 nM; the “CDC on CT26 CLDN18.2 cells, LDH: EC50 (run C)” value is around 11.9 nM. In test [4], the “ADCC (PBMC) on NCI-N87 CLDN18.2 cells, LDH: EC50 (run A)” value is 0.057 nM; the “ADCC (PBMC) on NCI-N87 CLDN18.2 cells, LDH: EC50 (run B)” value came out at 0.082 nM; the “ADCC (PBMC) on NCI-N87 CLDN18.2 cells, LDH: EC50 (run C)” value was determined as 0.1 nM. Besides, in test [5], the “ADCC (PBMC) on KATOIII CLDN18.2 cells, LDH: EC50 (run A)” value stood at 0.12 nM; the “ADCC (PBMC) on KATOIII CLDN18.2 cells, LDH: EC50 (run B)” value was determined as 0.22 nM; the “ADCC (PBMC) on KATOIII CLDN18.2 cells, LDH: EC50 (run C)” value was 0.27 nM.

B2: YL-G1-19-02 (antibody, human IgG1, kappa)
heavy: not shown
light: DIVMTQSPSSLTVTAGEKVTMSCKSSQSLLNSGNQKNYLTWYQQRPGQPPKLLIYWASTRESGVPVRFTGSGSGTDFTLTISSVQAEDLAVYYCQNAYIYPLTFGTGTKLELKRTVAAPSVFIFPPSDEQLKSGTASVVCLLNNFYPREAKVQWKVDNALQSGNSQESVTEQDSKDSTYSLSSTLTLSKADYEKHKVYACEVTHQGLSSPVTKSFNRGEC
Take B2: the “ADCC (PBMC) on KATOIII CLDN18.2 cells, LDH: max (% cytotoxity)” value in test [5] was 19.9%.

B3: YL-G2-D (antibody, human IgG1, kappa)
heavy: QLQQSGPELEKPGASVKISCKASGYSFTGYKMNWVKQSNGESLEWIGNIDPYYGDTTYTQKFKGKATFTVDTSSSTAYMQLKSLTSEDSAVYFCARYNRGNTMDYWGQGTSVTVSSASTKGPSVFPLAPSSKSTSGGTAALGCLVKDYFPEPVTVSWNSGALTSGVHTFPAVLQSSGLYSLSSVVTVPSSSLGTQTYICNVNHKPSNTKVDKRVEPKSCDKTHTCPPCPAPELVGGPSVFLLPPKPKDTLMISRTPEVTCVVVDVSHEDPEVKFNWYVDGVEVHNAKTKPPEEQYNSTLRVVSVLTVLHQDWLNGKEYKCKVSNKALPAPIEKTISKAKGQPREPQVYTLPPSREEMTKNQVSLTCLVKGFYPSDIAVEWESNGQPENNYKTTPLVLDSDGSFFLYSKLTVDKSRWQQGNVFSCSVMHEALHNHYTQKSLSLSPGK
light: B2 light with M21L, T75A, Y93F, I99F, K113R
notes: Fc-engineered version of YL-G1-19-04 without the first two VH residues; also called Fc-engineered chimeric antibody
On to B3, for which the “EC50 (read off the curve)” value in test [6] is around 0.3 ng/mL.

B4: YL-G2-B (antibody, human IgG1, kappa)
heavy: EVQLQQSGPELEKPGASVKISCKASGYSFTGYKMNWVKQSNGKSLEWIGNIDPYYGGTTYNQKFKGKATLTVDKSSSTAYMQLKSLTSEDSAVYYCARYGKGNTMDYWGQGTSVTVSSASTKGPSVFPLAPSSKSTSGGTAALGCLVKDYFPEPVTVSWNSGALTSGVHTFPAVLQSSGLYSLSSVVTVPSSSLGTQTYICNVNHKPSNTKVDKRVEPKSCDKTHTCPPCPAPELVGGPSVFLLPPKPKDTLMISRTPEVTCVVVDVSHEDPEVKFNWYVDGVEVHNAKTKPPEEQYNSTLRVVSVLTVLHQDWLNGKEYKCKVSNKALPAPIEKTISKAKGQPREPQVYTLPPSREEMTKNQVSLTCLVKGFYPSDIAVEWESNGQPENNYKTTPLVLDSDGSFFLYSKLTVDKSRWQQGNVFSCSVMHEALHNHYTQKSLSLSPGK
light: B2 light
notes: also called YL-G2-B batch 1; YL-G2-B batch 2
On to B4, for which the half-maximal effective concentration (EC50 (read off the curve)) in test [6] is around 0.6 ng/mL.

B5: YL-G2-C (antibody, human IgG1, kappa)
heavy: QIQLVQSGPELRKPGETVKISCKASGFPFTTDGMSWVKQAPGKGLKWMGWINTYSGVPTYADDFKGRVAFSLETSASTAYLQIKNLKNEDTATYFCARFRRGNALDNWGQGTSVTVSSASTKGPSVFPLAPSSKSTSGGTAALGCLVKDYFPEPVTVSWNSGALTSGVHTFPAVLQSSGLYSLSSVVTVPSSSLGTQTYICNVNHKPSNTKVDKRVEPKSCDKTHTCPPCPAPELVGGPSVFLLPPKPKDTLMISRTPEVTCVVVDVSHEDPEVKFNWYVDGVEVHNAKTKPPEEQYNSTLRVVSVLTVLHQDWLNGKEYKCKVSNKALPAPIEKTISKAKGQPREPQVYTLPPSREEMTKNQVSLTCLVKGFYPSDIAVEWESNGQPENNYKTTPLVLDSDGSFFLYSKLTVDKSRWQQGNVFSCSVMHEALHNHYTQKSLSLSPGK
light: B2 light with R45K, V66D, V91I, A97N, I99F, T106A, K109R
notes: Fc-engineered version of YL-G1-19-03; also called Fc-engineered chimeric antibody
For B5, the 50% effective concentration (EC50 (read off the curve)) in test [6] was around 0.6 ng/mL.
